Measured values: patent JP2019147786A (dated 2019)
Each block holds one binder with its values, some of them ahead of it.

Columns and labels:
[1] = molecular target: T1, 可溶性ヒトgp130受容体 (soluble human gp130 receptor, extracellular region with six histidines, made in CHO DG44 cells) (human, UniProt P40189 23-619); assay: SPR (Biacore T200), gp130 amine-coupled on CM5 (235.2 RU), Fab as analyte
T1 construct: The stated range 1-619 begins at Met 1 and so holds the native signal peptide; also called 可溶性ヒトgp130受容体タンパク質; ヒトgp130受容体
T1 sequence: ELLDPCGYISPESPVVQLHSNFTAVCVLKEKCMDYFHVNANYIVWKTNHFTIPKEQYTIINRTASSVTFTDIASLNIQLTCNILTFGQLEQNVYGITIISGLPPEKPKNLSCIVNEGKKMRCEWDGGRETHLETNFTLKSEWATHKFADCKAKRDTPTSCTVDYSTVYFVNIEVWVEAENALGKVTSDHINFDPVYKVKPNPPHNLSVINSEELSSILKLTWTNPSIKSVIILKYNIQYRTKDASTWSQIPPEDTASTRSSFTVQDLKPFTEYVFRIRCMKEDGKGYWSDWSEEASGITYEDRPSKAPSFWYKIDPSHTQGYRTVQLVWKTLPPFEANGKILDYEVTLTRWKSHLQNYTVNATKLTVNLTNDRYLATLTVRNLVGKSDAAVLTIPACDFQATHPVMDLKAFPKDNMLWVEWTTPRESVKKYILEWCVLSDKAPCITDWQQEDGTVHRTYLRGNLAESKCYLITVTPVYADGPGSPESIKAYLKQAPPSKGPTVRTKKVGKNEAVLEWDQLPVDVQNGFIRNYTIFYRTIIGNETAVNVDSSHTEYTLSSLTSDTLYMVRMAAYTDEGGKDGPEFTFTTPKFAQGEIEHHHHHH

[2] = molecular target: T1, 可溶性ヒトgp130受容体 (soluble human gp130 …); assay: SPR (Biacore T200), gp130 amine-coupled on CM5 (376 RU), full-length IgG as analyte
[3] = molecular target: T1, 可溶性ヒトgp130受容体 (soluble human gp130 …); assay: ELISA, soluble gp130 coated on the plate, hybridoma supernatant, anti-mouse HRP
[4] = molecular target: T1, 可溶性ヒトgp130受容体 (soluble human gp130 …); assay: SPR (Biacore T200), gp130 amine-coupled on CM5 (352 RU), Fab as analyte, 25 C

Kd [1]: 0.218 nM | koff [1]: 5.6e-05 s⁻¹ | kon [1]: 257000 M⁻¹ s⁻¹
B1: hAH1hAL1 (humanized Fab, VH SEQ ID NO 25, VL SEQ ID NO 76, from pUC-Fab-hAH1hAL1) (Fab, V domains shown)
VH: QVQLQQPGAELVQPGTSVRLSCKASGYTFTDYNMDWVKQRPGQGLEWIGDINSHSGGIIYNQKFKDKATLTVDKSSSTAYMQLSSLTSEDSAVYYCARTYYVYGHFFDYWGQGTLVTVSA
VL: DIQMTQSPSSLSASVGDRVTITCNVSSSVTSMYWYQQKQGKSPQLLVYLTSNLASGVPARFSGSGSGTEFTLTISSLQPDDFATYYCQQWSTNPLTFGAGTKLDLKR

Kd [4]: 0.46 nM | koff [4]: 8.21e-05 s⁻¹ | kon [4]: 178000 M⁻¹ s⁻¹
B5: hAH1mAL (Fab: humanized VH hAH1 with the mouse L chain of antibody A, from pUC-Fab-hAH1mAL) (Fab, V domains shown)
VH: B1 VH
VL: QSVLTQSPAFISASPGEKVTMTCNVSSSVTSMYWYQQKPGSSPKPWIYLTSNLASGVPPRFSGSGSGTSYSLTISSLEAEDAATYYCQQWSTNPLTFGAGTKLELKR

Kd [4]: 0.598 nM | koff [4]: 8.42e-05 s⁻¹ | kon [4]: 141000 M⁻¹ s⁻¹
B6: 小型化マウス抗体A (Fab of mouse antibody A, from pUC-Fab-mAHmAL, E. coli) (Fab, V domains shown)
VH: EVLLQQSGPELVKPGASVKIPCKASGYTFTDYNMDWVKQSHGKSLEWIGDINSHSGGIIYNQKFKDKAILTVDKSSSTAYMELRSLTSEDTAVYYCARTYYVYGHFFDYWGQGTTLTVSS
VL: B5 VL

More lines, now with the values behind:

B2: hAH1hAL3 (full-length humanized anti-gp130 receptor antibody, H chain hAH1, L chain hAL3, made in CHO DG44 cells) (antibody, human IgG1, kappa, V domains shown)
VH: B1 VH
VL: DIQMTQSPSSLSASVGDRVTITCNVSSSVTSMYWFQQRPGQAPKVLIYLTSNLASGVPSRFSGSGSGTEFTLTISSLQPDDFATYYCQQWSTNPLTFGQGTKVEIKR
notes: Human IgG1, kappa constant regions; also called ヒト化抗体hAH1hAL3
Kd [2]: 0.585 nM | koff [2]: 7.25e-05 s⁻¹ | kon [2]: 124000 M⁻¹ s⁻¹

B3: hAH1hAL2 (humanized Fab, VH SEQ ID NO 25, VL SEQ ID NO 77, from pUC-Fab-hAH1hAL2) (Fab, V domains shown)
VH: B1 VH
VL: ELVLTQSPGTLSLSAGERATLSCNVSSSVTSMYWYQQKPGKAPKLLIYLTSNLASGVPSRFSGSGSGTQFSLKINNLQPEDFGSYYCQQWSTNPLTFGAGTKLDLKR
Kd [1]: 0.594 nM | koff [1]: 7.05e-05 s⁻¹ | kon [1]: 119000 M⁻¹ s⁻¹

B4: 抗体A (mouse anti-human gp130 receptor monoclonal antibody from hybridoma) (antibody, mouse IgG1, kappa, V domains shown)
VH: B6 VH
VL: B5 VL
notes: also called マウス抗体A; antibody A
binding result [3]: binds
